{"source": "paper PMC6420636", "about": "“The deubiquitylating enzyme USP15 regulates homologous recombination repair and cancer cell response to PARP inhibitors” (Nature Communications, 2019)", "binders": {"B1": {"name": "GST-HP1γ (natural protein)", "chain": "not shown", "notes": "HP1γ; plasmid a gift from Naoko Tanese; source: E. coli BL21, purified (glutathione Sepharose 4B)"}}, "biological_target": "T1, FLAG-BARD1-BRCT, deubiquitinated by His-USP15 in vitro (UniProt Q99728 568-777)", "T1 construct": "BARD1 C-terminal BRCT domain; also called deubiquitinated BARD1-BRCT domain", "T1 sequence (looked up)": "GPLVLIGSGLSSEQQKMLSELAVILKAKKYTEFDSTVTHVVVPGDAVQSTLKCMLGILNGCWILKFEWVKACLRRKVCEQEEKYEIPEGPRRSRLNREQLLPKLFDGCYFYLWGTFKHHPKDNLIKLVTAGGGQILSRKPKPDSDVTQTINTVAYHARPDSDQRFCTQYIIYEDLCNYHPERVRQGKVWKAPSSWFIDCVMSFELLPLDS", "assay": "pull-down; in vitro binding assay: BARD1-BRCT purified by tandem IP and left on FLAG beads, untreated or deubiquitinated by His-USP15, incubated with GST or GST-HP1γ", "conditions": "both partners purified"}
{"binder": "B1", "values": [{"measurement": "binding result", "result": "binds"}]}
